Results reported in the supplement of paper PMC10567573.

B1: CHCHD3 (parent)
chain: YSGAYGASVSDEELKRRVAEELAL
B2: PTPRD (parent)
chain: ELDELLKEISRKRRSIRYGREVEL

Variants of: B1
Assay: protein stability index of a GFP-peptide fusion (GPS, HEK-293T) (PSI 1-6); higher = more stable
Conditions: c terminus: a fixed tail appended
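Note: lentivirally expressed fusions sorted by FACS into six bins by GFP to DsRed ratio, PSI derived from sequencing read proportions per bin multiplied by bin number.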

Variant	protein stability index
YSGACGASVSDEELKRRVAEELAL [Y5C]	2.75
YSGAAGASVSDEELKRRVAEELAL [Y5A]	5.09
RSGAYGASVSDEELKRRVAEELAL [Y1R]	4.63
ASGAYGASVSDEELKRRVAEELAL [Y1A]	4.93
HSGAYGASVSDEELKRRVAEELAL [Y1H]	4.99
QSGAYGASVSDEELKRRVAEELAL [Y1Q]	5.07
DSGAYGASVSDEELKRRVAEELAL [Y1D]	5.4
ISGAYGASVSDEELKRRVAEELAL [Y1I]	4.74
SSGAYGASVSDEELKRRVAEELAL [Y1S]	5.45
MSGAYGASVSDEELKRRVAEELAL [Y1M]	5.2
LSGAYGASVSDEELKRRVAEELAL [Y1L]	4.87
GSGAYGASVSDEELKRRVAEELAL [Y1G]	4.87
KSGAYGASVSDEELKRRVAEELAL [Y1K]	3.73
FSGAYGASVSDEELKRRVAEELAL [Y1F]	2.71
CSGAYGASVSDEELKRRVAEELAL [Y1C]	3.63
TSGAYGASVSDEELKRRVAEELAL [Y1T]	4.34
NSGAYGASVSDEELKRRVAEELAL [Y1N]	4.71
YSLAYGASVSDEELKRRVAEELAL [G3L]	4.33
YSWAYGASVSDEELKRRVAEELAL [G3W]	2.63
YSVAYGASVSDEELKRRVAEELAL [G3V]	3.98
YSNAYGASVSDEELKRRVAEELAL [G3N]	4.18
YSFAYGASVSDEELKRRVAEELAL [G3F]	3.05
YSIAYGASVSDEELKRRVAEELAL [G3I]	4.29
YSEAYGASVSDEELKRRVAEELAL [G3E]	4.87
YSHAYGASVSDEELKRRVAEELAL [G3H]	4.1

Variant	protein stability index
YSKAYGASVSDEELKRRVAEELAL [G3K]	3.17
YSPAYGASVSDEELKRRVAEELAL [G3P]	3.78
YSCAYGASVSDEELKRRVAEELAL [G3C]	2.73
YSDAYGASVSDEELKRRVAEELAL [G3D]	5.41
YSYAYGASVSDEELKRRVAEELAL [G3Y]	3.4
YSQAYGASVSDEELKRRVAEELAL [G3Q]	3.96
YSRAYGASVSDEELKRRVAEELAL [G3R]	3.56
YSAAYGASVSDEELKRRVAEELAL [G3A]	2.94
YSMAYGASVSDEELKRRVAEELAL [G3M]	3.81
YSTAYGASVSDEELKRRVAEELAL [G3T]	2.9
YSSAYGASVSDEELKRRVAEELAL [G3S]	3.37
YSGGYGASVSDEELKRRVAEELAL [A4G]	2.27
YSGQYGASVSDEELKRRVAEELAL [A4Q]	2.61
YSGCYGASVSDEELKRRVAEELAL [A4C]	2.64
YSGDYGASVSDEELKRRVAEELAL [A4D]	4.64
YSGVYGASVSDEELKRRVAEELAL [A4V]	3.03
YSGWYGASVSDEELKRRVAEELAL [A4W]	2.11
YSGSYGASVSDEELKRRVAEELAL [A4S]	3.39
YSGIYGASVSDEELKRRVAEELAL [A4I]	3.21
YSGPYGASVSDEELKRRVAEELAL [A4P]	4.24
YSGLYGASVSDEELKRRVAEELAL [A4L]	2.7
YSGYYGASVSDEELKRRVAEELAL [A4Y]	2.15
YSGFYGASVSDEELKRRVAEELAL [A4F]	1.95
YSGKYGASVSDEELKRRVAEELAL [A4K]	2.63
YSGMYGASVSDEELKRRVAEELAL [A4M]	2.59

Variant	protein stability index
YSGTYGASVSDEELKRRVAEELAL [A4T]	3.66
YSGEYGASVSDEELKRRVAEELAL [A4E]	3.31
YSGRYGASVSDEELKRRVAEELAL [A4R]	3.03
YSGHYGASVSDEELKRRVAEELAL [A4H]	2.84
YSGNYGASVSDEELKRRVAEELAL [A4N]	2.97
YLGAYGASVSDEELKRRVAEELAL [S2L]	2.88
YHGAYGASVSDEELKRRVAEELAL [S2H]	1.38
YGGAYGASVSDEELKRRVAEELAL [S2G]	3.62
YMGAYGASVSDEELKRRVAEELAL [S2M]	3.24
YEGAYGASVSDEELKRRVAEELAL [S2E]	4.78
YYGAYGASVSDEELKRRVAEELAL [S2Y]	4.05
YWGAYGASVSDEELKRRVAEELAL [S2W]	4.26
YRGAYGASVSDEELKRRVAEELAL [S2R]	4.62
YVGAYGASVSDEELKRRVAEELAL [S2V]	1.9
YKGAYGASVSDEELKRRVAEELAL [S2K]	4.35
YNGAYGASVSDEELKRRVAEELAL [S2N]	3.63
YQGAYGASVSDEELKRRVAEELAL [S2Q]	3.46
YDGAYGASVSDEELKRRVAEELAL [S2D]	5.1
YTGAYGASVSDEELKRRVAEELAL [S2T]	2.27
YFGAYGASVSDEELKRRVAEELAL [S2F]	3.45
YIGAYGASVSDEELKRRVAEELAL [S2I]	2.17
YPGAYGASVSDEELKRRVAEELAL [S2P]	3.22
YCGAYGASVSDEELKRRVAEELAL [S2C]	2.48

Variants of: B2
Assay: as above
Conditions: c terminus: a fixed tail appended

Variant	protein stability index
ELDELLKEISRKRRSIRYGRCVEL [E21C]	2.55
ELDELLKEISRKRRSIRYGRPVEL [E21P]	2.71
ELDELLKEISRKRRSIRYGRHVEL [E21H]	2.06
ELDELLKEISRKRRSIRYGRTVEL [E21T]	3.01
ELDELLKEISRKRRSIRYGRIVEL [E21I]	1.82
ELDELLKEISRKRRSIRYGRFVEL [E21F]	2.22
ELDELLKEISRKRRSIRYGRNVEL [E21N]	1.93
ELDELLKEISRKRRSIRYGRKVEL [E21K]	2.09
ELDELLKEISRKRRSIRYGRMVEL [E21M]	1.86
ELDELLKEISRKRRSIRYGRYVEL [E21Y]	2.15
ELDELLKEISRKRRSIRYGRQVEL [E21Q]	2.13
ELDELLKEISRKRRSIRYGRAVEL [E21A]	2.16
ELDELLKEISRKRRSIRYGRLVEL [E21L]	2.12
ELDELLKEISRKRRSIRYGRDVEL [E21D]	1.79
ELDELLKEISRKRRSIRYGRSVEL [E21S]	1.86
ELDELLKEISRKRRSIRYGRVVEL [E21V]	1.86
ELDELLKEISRKRRSIRYGRRVEL [E21R]	2.23
ELDELLKEISRKRRSIRYGRGVEL [E21G]	2.22
ELDELLKEISRKRRSIRYGREVGL [E23G]	2.41
ELDELLKEISRKRRSIRYGREVCL [E23C]	1.96
ELDELLKEISRKRRSIRYGREVLL [E23L]	2.85
